In the nanobody polyreactivity screen of Harvey et al. (2022):

Assay: yeast display, Sf9 membrane polyspecificity reagent, FACS + sequencing; frameworks hold sequencing errors
Summary of the method: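 Using colony PCR, genes from sorted yeast display clones were amplified, then sequenced on MiSeq at 2 × 250 and filtered by CDR length. The clones had been stained with 10% biotinylated, detergent-solubilized Sf9 membrane reagent for 1 hour at 4 °C and sorted by FACS into low and high (top ~1%) gates on anti-HA and streptavidin fluorescence. Polyreactivity labels come from the gate of origin.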

| Sequence | polyreactivity (PSR sort gate) |
| --- | --- |
| QVQLVESGGGLVQAGGSLRLSCAASGRTFQTYAMGWYRQAPGKERELVAAISSDGSTYYADSVKGRFTISRDNAKNTVYLQMNSLKPEDTAVYYCNTDIGDKYYYHVRVDYEYWGQGTQVTLSS | low polyreactivity |
| QVQLVESGGGLVQAGGSLRLSCAASGRTFQWNGMGWYRQAPGKERELVDTIRRGGSTNYADSVKGRFTISRDNAKNTVDLQMNSLKPEDTAVYYCAADRRYPGGWGFEYNYWGQGTQVTVSS | low polyreactivity |
| QVQLVESGGGLVQAGGSLRLSCAASGRTFQYYAMGWNRQAPGKERELVAAISQDGGSTYYADSVKGRFTISRDNAKHSVYLQMNSLKPEDTAVYYCDAEVWRSYGYWGQGTQVTVSS | low polyreactivity |
| QVQLVESGGGLVQAGGSLRLSCAASGRTFQYYAMGWYRPAPGKERELVAALSSRGGSTYYADSVKGRFTISRDNAKNTVSLQMNSLKPEDTAVYYCAAYVLPRQRVRSDYWGQGTQVTVTS | high polyreactivity |
| QVQLVESGGGLVQAGGSLRLSCAASGRTFQYYVMGWYRQAPGKERELVAAITSAGSTNYADSVKGRFTISRDNAKNTVYLQMNSLKPEDTAVYYCNADLWVNLHNDDDYWGQGTQVTVSS | low polyreactivity |
| QVQLVESGGGLVQAGGSLRLSCAASGRTFRANAMGWSRQAPGKERELVAAITWDGGSTYYADSVKGRFTISRDNAKNTVYLQMNSLKPEDTAVYYCNTYPYLWGQGTQVTVSS | low polyreactivity |
| QVQLVESGGGLVQAGGSLRLSCAASGRTFRANDMGWYRQAPGKERELVAAISQSGGSTYYADSVKGRFTISRDNAKNTVYFQMNSLKPEDTAVYDCNALGRISNHTLYDYWGQGTQVTVSS | low polyreactivity |
| QVQLVESGGGLVQAGGSLRLSCAASGRTFRANVMGWYRQAPGKERELVAAISKSGGRTYYADSVKGRFTISRDNAKNTVYLQMNSLKPEDTAVYYCAADIPSYRGYGYDYWGQGTQVTVSS | high polyreactivity |
| QVQLVESGGGLVQAGGSLRLSCAASGRTFRAYALGWYRQAPGKERELVARISWSGGNTYNADSVKGRFTISRDHAKNTVYLQMNSLKPEDTAVYYCAKTYYPYPAQIYTGYSWGQGTQVTVSS | low polyreactivity |
| QVQLVESGGGLVQAGGSLRLSCAASGRTFRAYAMGGYRQAPGKERELVAAITSGGSTYYADSVKGRFTISRDNAKNTVYLQMNSLKPEDTAVYYCNRRGWSRTHQYDYWGQGTQVTESS | high polyreactivity |
| QVQLVESGGGLVQAGGSLRLSCAASGRTFRAYAMGWYRQAPGKEMELVAGITSGGSTNYADSVKGRFTISRDNAKNTVYLQMNSLKPEDTAVYYCAARRGTYRYRYDYWGQGTQVTVSS | high polyreactivity |
| QVQLVESGGGLVQAGGSLRLSCAASGRTFRAYAMGWYRQAPGKERELVAAIRSGTSTNYADSVKGRFTISRDNAKNTVYLQMNSLKPEDTAVYYCAAEWRKTYRYFTFGYWGQGTQVTVSS | high polyreactivity |
| QVQLVESGGGLVQAGGSLRLSCAASGRTFRAYAMGWYRQAPGKERELVAAISRSGGRTYYADSVKGRFIISRDNAKITVYLQMNSLKPEDTAVYYCAAGSNIWGQGTQVTVSS | high polyreactivity |
| QVQLVESGGGLVQAGGSLRLSCAASGRTFRDNAMGWYRQAPGKERELVAAISRRGGSTYYADSVKGRFTISRDNAKNTVYLQMNSLKPEDTAVYYCAADRPDGWVDYWGQGTQVTVSS | low polyreactivity |
| QVQLVESGGGLVQAGGSLRLSCAASGRTFRDNTMGWYRQAPGKERELVAGISSSTGSTYYADSVKGRFTISRDNAKNTVYLQMNSLKPEDTAVYYCAAEYADYWTYNMGYWGQGTQVTVSS | low polyreactivity |
| QVQLVESGGGLVQAGGSLRLSCAASGRTFRFYAMGWYRQAPGKERELVAAITSGGSTTYADSVKGRFTISRDNAKNTVYLQMNSLKPEDTAVYYCNADRARAYDYWGQGTQVTVSS | high polyreactivity |
| QVQLVESGGGLVQAGGSLRLSCAASGRTFRGYAMGWYRQAPGKERELVAAISASGGSTYYADSVKGRFTISRDNAKNTVYLQMNSLKPEDTAVYYCAARFWFTKGYDYWGQGTQVTVSS | high polyreactivity |
| QVQLVESGGGLVQAGGSLRLSCAASGRTFRGYAMGWYRQAPGKERELVAAISSGGSTYYADSVKGRFTISRDNAKNTVYLQMNSLKPEDTAVYYCAVAYYPHGREGAHFQYGYDYWGQGTQVTVSS | low polyreactivity |
| QVQLVESGGGLVQAGGSLRLSCAASGRTFRHDGMGWYRQAPGKERELVAAISRSGGRTYYADSVKGRFTISRDNAKNTVYLQMNSLKPEDTAVYYCNAPYDVTTYAFDYWGQGTQVTVSS | high polyreactivity |
| QVQLVESGGGLVQAGGSLRLSCAASGRTFRIYAMGWYRQAPGKERELVAAITWGGGSTYYADSVKGRFTISRDNAKNTVYLQMNSLKPEDTAVYYCARVGWSWPRREKYNYWGQGTQVTVSS | high polyreactivity |
| QVQLVESGGGLVQAGGSLRLSCAASGRTFRIYAMGWYRQAPGKERELVATISGRGGNTYYADSVKGRFTISRDNAKNTVYLQMNSLKPEDTAVDYCAADDATAYRVDGFKYDYWGQGTLVTVSS | high polyreactivity |
| QVQLVESGGGLVQAGGSLRLSCAASGRTFRIYARGWSRQAPGKERELDAAITKRGGITYYADSVKGRFTISRDNAQNTVYLQMNSLKPEDTAVYYCAKAWKSWSRISKSTFYWTSGDYWGQGTQVTVSS | high polyreactivity |

| Sequence | polyreactivity (PSR sort gate) |
| --- | --- |
| QVQLVESGGGLVQAGGSLRLSCAASGRTFRKFAMGWYRQAPGKERELVAASSWSGGSTYYANSVKGRFTISRDNAKNTVYLQMNSLKPDDTAVYYCAAVPVHTGSLYWGFTTGYDYWGQGTQVTVSS | low polyreactivity |
| QVQLVESGGGLVQAGGSLRLSCAASGRTFRKYAMGWYRQAPGKERELVAAISWSGGSRYYANSVKGRFTISRDNAKNTVYLQMNSLKPEETAVYYCSAVPVHTGSLYWGFTTGYDYWGQGTQVTVSS | low polyreactivity |
| QVQLVESGGGLVQAGGSLRLSCAASGRTFRKYAMGWYRQAPGKERELVAAISWSGGSTYYANSVKGRFTISRDNAKNTVYLQMNSLKPEDTAVYYCAAVPVHTGSLYWGFTTGYDYWGQGTQVTVSS | low polyreactivity |
| QVQLVESGGGLVQAGGSLRLSCAASGRTFRLNAMGWYRQAPGKERELVARITGSSGGSTYYADSVKGRFTISRDNAKNTVYLQMNSLKPEDTAVYYCNKRVGFLYKYDYWGQGTQVTVSS | high polyreactivity |
| QVQLVESGGGLVQAGGSLRLSCAASGRTFRLYAMGWYRHAPGKERELVAAISRRGGSTYYADSVKGRFTISRDNAKNTVYLQMNSLKPEDTAVYYCAKGLGSGQEIYGYDYWGQGTQVTVSS | high polyreactivity |
| QVQLVESGGGLVQAGGSLRLSCAASGRTFRLYAMGWYRQAPGKVRELGAAITRGGRTNYADSVKGRFTISRDNAKNTVYLQMNSLKPEDTALYYCAARYVERHTDYYYWGQGTQVTVSS | low polyreactivity |
| QVQLVESGGGLVQAGGSLRLSCAASGRTFRNNAMGWYRQAPGKEREFVAVISNTGGSTYYADSVKGRFTISRDNAKNTVYLQMYSLKPEDTAVYYCAVRPRYSQYYYWGQGTQVTVSS | high polyreactivity |
| QVQLVESGGGLVQAGGSLRLSCAASGRTFRNYAMGWYRPAPGKERELVAAITWSGGSTYYADSVKGRFTISRDNAKNTVYLQMNSLKPEDTAVYYCNVRSYTRTYNYWGQGTQVTVSS | high polyreactivity |
| QVQLVESGGGLVQAGGSLRLSCAASGRTFRPNVMGWYRQAPGKERELVAAISNGGRTYYADSVKGRFTISRDNAKNTVFLQMNCLKAEYTAVYYCNKVRSPWYDYWVQGTQVTVSS | high polyreactivity |
| QVQLVESGGGLVQAGGSLRLSCAASGRTFRPYAMGWYRPAPGKERELVAAISYRGGITNYADSVKGRFTISRDNAKNTVYLKMNSLKPEDTAVYYCNRYAIWVSRYSDLDYWGQGTEVTVSS | low polyreactivity |
| QVQLVESGGGLVQAGGSLRLSCAASGRTFRPYAMGWYRQAPGKERELVAAISSGGSTYYADSVKGRFTISRDNAKNTVYLQMNSLKPEDTAVYYCNAVGLWARDYGYWGQGTQVTVSS | high polyreactivity |
| QVQLVESGGGLVQAGGSLRLSCAASGRTFRRNAMGWYRQAPGKERELVAAISGGGSTNYADSVKGRFTISRDNAKNTVYLQMNSLKPEDTAVYYCNKRGTIWSGYWGQGTQVTVSS | high polyreactivity |
| QVQLVESGGGLVQAGGSLRLSCAASGRTFRRNAMGWYRQAPGKERELVASITRNGGSTYYADSVKGRFTISRDNAKNTVYLQMNILKPEDTAVYYCYKTQPIDLYGYWGQGTQVTVSS | high polyreactivity |
| QVQLVESGGGLVQAGGSLRLSCAASGRTFRRNAMGWYRQAPGKERELVATISSSGGRTYYADSVKGRFTISRDNAKKTVYFQMNSLKPEDTAVYYCNKALRTYPLFYYWGQGTQVTVSS | high polyreactivity |
| QVQLVESGGGLVQAGGSLRLSCAASGRTFRRNVMGWYRQAPGKERELVAAISSGANTNYADSVKGRFTISRDNAKNTVYLQMNSLKPEDTAVYYCNARWQEPLKYDYWGQGTQVTVSS | low polyreactivity |
| QVQLVESGGGLVQAGGSLRLSCAASGRTFRRYAMGWYRQAPGKERELVAAISWGAGSTRYADSVKGRFTISRDNAKNTVYLQMNSLKPEDTAVYYCAAENTRAYGMYYWGQGTQVTVSS | high polyreactivity |
| QVQLVESGGGLVQAGGSLRLSCAASGRTFRRYAMGWYRQAPGKERELVAAISYSGTTTYYADSVKGRFTISRDNAKNTVYLQMNSLKPEDTAVYYCNKATAFGLDYWGQGTQVTVSS | high polyreactivity |
| QVQLVESGGGLVQAGGSLRLSCAASGRTFRRYAMGWYRQAPGKERELVATIRSGDNTNYADSVKGRFTISRDNAKNTVYLQMNSLKPEDTAVYYCNRSPKSGQVTYLYSVNAHYDYWGQGTQVTVSS | low polyreactivity |
| QVQLVESGGGLVQAGGSLRLSCAASGRTFRRYFMGWYRQAPGKERELVAAISGGGGSTYYAGSVKGRFTISRDNAKNTVYLQMNSLKPEDTAVYYCAARIGWYQYWGYPTSYGYWGQGTQVTVSS | high polyreactivity |
| QVQLVESGGGLVQAGGSLRLSCAASGRTFRRYTMGWYRPAPGKERELVAAITTSGGSTYYADSVKGRFTLSRDNAKNTVYLQMNSLKPEDTAVYYCAATRRYSGDYWGQGTQVTVSS | high polyreactivity |
| QVQLVESGGGLVQAGGSLRLSCAASGRTFRSNAMGWDRQAPGKEREFVAAISSGGSTKYADSVKGRFTISRDNAKNTVYLQMNSLKPEDTAVYYCAAVSHSRYWGQGTQVTVSS | high polyreactivity |
